Results published in US20180282426A1 (NOVIMMUNE S A, published 2018).
One block for each binder: values may come before it.

Tests used:
[1] = molecular target: T1, human TLR4/MD-2 complex on the surface of transfected CHO cells (human, UniProt O00206 24-839; Q9Y6Y9 19-160); test: FACS of hybridoma supernatant on mock vs. TLR4/MD-2 transfected CHO cells
T1 construct: whole, on cells; also called TLR4/MD-2 transfected CHO cells; hTLR4/MD-2 transfected CHO cells
Method: Mice immunized with CHO cells expressing surface TLR4/MD-2 were monitored for specific serum titers. […] This strategy was chosen in order to minimize the response to non-specific CHO cellular antigens, while simultaneously maximizing the TLR4/MD-2-specific response. Screening by FACS of supernatants from hybridomas resulting from B cell/myeloma fusions was performed on mock transfected vs. TLR4/MD-2 transfected CHO cells.

[2] = molecular target: T2, human TLR4 and human MD-2 on transiently transfected HEK 293 cells (human, UniProt O00206 24-839; Q9Y6Y9 19-160); test: FACS on transiently transfected HEK 293 cells
T2 construct: whole, on cells; also called human TLR4/MD-2 complex
Method: FIGS. 4A-4L are a series of graphs depicting the specificity of the 18H10 monoclonal antibody for MD-2. The specificity of the 18H10 antibody is shown by flow cytometry analysis of HEK 293 cells transiently transfected with either human TLR4 and human MD-2 (FIG. 4A, FIG. 4E and FIG. 4I); rabbit TLR4 and rabbit MD-2 (FIG. 4B, FIG. 4F and FIG. 4J); human TLR4 and rabbit MD-2 (FIG. 4C, FIG. 4G and FIG. 4K); or rabbit TLR4 and human MD-2 (FIG. 4D, FIG. 4H and FIG. 4L). Cells were incubated with either α-FLAG™ antibody (to detect TLR4 expression); α-C-myc antibody (to detect MD-2 expression) or the 18H10 monoclonal antibody, followed by an APC-coupled α-mouse (H+L) antibody.
FIGS. 12A-12L is a series of graphs depicting the specificity of the 16G7 monoclonal antibody for TLR4. […]
HEK 293 cells were plated in 6 well plates at a density of 2.5×10⁵ cells/well in 2 ml culture medium containing 10% FBS. […] 48 hours post-transfection, cells were stained with the appropriate monoclonal antibody (as indicated in FIGS. 4A-4L) and an APC-coupled goat anti-mouse IgG (H+L) antibody (Molecular Probes) and analyzed using the FACScalibur in the FL-4 channel.

[3] = molecular target: T1, human TLR4/MD-2 complex on the surface …; test: flow cytometry on TLR4/MD-2 transfected CHO cells, against an isotype matched control MAb
From the text: FIG. 26 is a graph illustrating that the VH and VL nucleotide sequence of 7E3 expressed as a chimeric MAb (“chimeric 7E3”) is capable of binding specifically to the human TLR4/MD-2 complex on the surface of transfected CHO cells. Monoclonal antibody binding to TLR4/MD-2 transfected CHO cells is shown by flow cytometry using chimeric 7E3 or an isotype matched control MAb at the indicated concentrations.
(§1) Specific binding of MAb at the indicated concentration was detected using an APC-labeled goat-anti-human IgG (H+L) secondary antibody. An irrelevant isotype-matched IgG1 MAb was used as a control.

[4] = molecular target: T3, human TLR4 alone in transfected HEK 293 cells (human, UniProt O00206 24-839); test: FACS on HEK 293 cells transfected with human TLR4 alone
T3 construct: whole, on cells; also called TLR4 alone in transfected cell lysates
Method: (§2) FIGS. 24A-24F is a series of graphs depicting the specificity of the 7E3 monoclonal antibody for the TLR4/MD-2 complex. The specificity of the 7E3 antibody is shown by flow cytometry analysis of HEK 293 cells transiently transfected with either mock vector (FIG. 24A), human TLR4 (FIG. 24B), human TLR4 and human MD-2 (FIG. 24C), rabbit TLR4 and rabbit MD-2 (FIG. 24D), human TLR4 and rabbit MD-2 (FIG. 24E), or rabbit TLR4 and human MD-2 (FIG. 24F). Cells were incubated with the 7E3 monoclonal antibody (10 μg/ml), followed by an APC-coupled α-mouse (H+L) antibody.
(§3) HEK 293 cells were plated in 6 well plates at a density of 2.5×10⁵ cells/well in 2 ml culture medium containing 10% FBS. 16 hours post-plating, cells were transfected with 0.75 μg of the appropriate vector(s) using Fugene™ reagent (Roche) according to the manufacturer's guidelines. 48 hours post-transfection, cells were stained with the appropriate monoclonal antibody (as indicated in FIGS. 4A-4L) and an APC-coupled goat anti-mouse IgG (H+L) antibody (Molecular Probes) and analyzed using the FACScalibur in the FL-4 channel.

[5] = molecular target: T1, human TLR4/MD-2 complex on the surface …; test: flow cytometry, mock transfected vs. TLR4/MD-2 transfected cells
[6] = molecular target: T2, human TLR4 and human MD-2 on …; test: FACS on transiently transfected HEK 293 cells, 7E3 at 10 µg/ml
Method: as §2, §3

[7] = molecular target: T3, human TLR4 alone in transfected HEK 293 …; test: FACS on transiently transfected HEK 293 cells, 15C1 at 10 µg/ml
Method: (§4) FIGS. 17A-17F are a series of graphs depicting the specificity of the 15C1 monoclonal antibody for TLR4. The specificity of the 15C1 antibody is shown by flow cytometry analysis of HEK 293 cells transiently transfected with either mock vector, i.e., empty vector (FIG. 17A), human TLR4 (FIG. 17B), human TLR4 and human MD-2 (FIG. 17C), rabbit TLR4 and rabbit MD-2 (FIG. 17D), human TLR4 and rabbit MD-2 (FIG. 17E), or rabbit TLR4 and human MD-2 (FIG. 17F). Cells were incubated with the 15C1 monoclonal antibody (10 μg/ml), followed by an APC-coupled α-mouse (H+L) antibody.
as §3

[8] = molecular target: T2, human TLR4 and human MD-2 on …; test: as above
Method: as §4, §3

[9] = molecular target: T1, human TLR4/MD-2 complex on the surface …; test: flow cytometry on TLR4/MD-2 transfected CHO cells, against an isotype matched control monoclonal antibody
From the text: FIG. 19 is a graph depicting that the VH and VL nucleotide sequence of 15C1 expressed as a chimeric MAb (“chimeric 15C1”) is capable of binding specifically to the human TLR4/MD-2 complex on the surface of transfected CHO cells. MAb binding to the TLR4/MD-2 complex is shown by flow cytometry using chimeric 15C1 or an isotype matched control monoclonal antibody at the indicated concentration.
as §1

T2 sequence (O00206 24-839, chain 1 of 2): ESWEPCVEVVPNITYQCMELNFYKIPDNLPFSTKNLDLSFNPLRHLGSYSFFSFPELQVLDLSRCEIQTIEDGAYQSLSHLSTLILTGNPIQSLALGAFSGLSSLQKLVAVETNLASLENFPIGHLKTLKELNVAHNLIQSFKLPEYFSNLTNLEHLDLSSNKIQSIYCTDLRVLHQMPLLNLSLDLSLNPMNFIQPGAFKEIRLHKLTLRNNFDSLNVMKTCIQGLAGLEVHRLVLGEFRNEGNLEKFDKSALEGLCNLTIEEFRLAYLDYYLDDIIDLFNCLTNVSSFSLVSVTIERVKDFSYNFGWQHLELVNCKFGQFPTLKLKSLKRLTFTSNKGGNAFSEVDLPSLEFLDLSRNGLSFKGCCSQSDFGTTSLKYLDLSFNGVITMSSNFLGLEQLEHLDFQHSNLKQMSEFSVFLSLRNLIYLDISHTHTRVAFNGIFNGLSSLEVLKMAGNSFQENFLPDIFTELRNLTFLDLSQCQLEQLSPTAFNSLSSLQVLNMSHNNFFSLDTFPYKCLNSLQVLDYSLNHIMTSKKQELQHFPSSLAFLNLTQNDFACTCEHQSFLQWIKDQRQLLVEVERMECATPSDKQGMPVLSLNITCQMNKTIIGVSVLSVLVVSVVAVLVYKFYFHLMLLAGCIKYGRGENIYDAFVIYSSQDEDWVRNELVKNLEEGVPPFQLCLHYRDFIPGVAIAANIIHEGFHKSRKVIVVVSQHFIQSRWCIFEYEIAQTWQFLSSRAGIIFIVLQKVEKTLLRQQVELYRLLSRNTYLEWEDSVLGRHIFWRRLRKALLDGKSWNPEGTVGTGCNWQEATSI
T2 sequence (Q9Y6Y9 19-160, chain 2 of 2): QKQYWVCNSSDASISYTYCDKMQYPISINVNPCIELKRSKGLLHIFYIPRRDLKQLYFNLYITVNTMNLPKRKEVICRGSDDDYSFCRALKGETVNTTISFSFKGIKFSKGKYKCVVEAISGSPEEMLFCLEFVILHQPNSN
T1 sequence (O00206 24-839, chain 1 of 2): as the sequence (O00206 24-839, chain 1 of 2) above
T1 sequence (Q9Y6Y9 19-160, chain 2 of 2): as the sequence (Q9Y6Y9 19-160, chain 2 of 2) above
T3 sequence (O00206 24-839): as the sequence (O00206 24-839, chain 1 of 2) above

B1: 16G7 monoclonal antibody (antibody, IgG1, V domains shown)
VH: QVKLQESGAELMKPGASVKISCKATGYKFSDYWIEWIKQRPGHGLEWIGEILPGSGSTNYNEDFKDKATFTSDTSSNTAYMQLSSLTSEDSAVYYCAKEERAYYFGYWGQGTTVTVSS
VL: DVLMTQTPLSLPVSLGDQASISCRSSQSLENSNGNTYLNWYLQKPGQSPQLLIYRVSNRFSGVLDRFSGSGSGTDFTLKISRVEAEDLGVYFCLQVTHVPPTFGAGTKLELKR
binding result [1]: binds
binding result [2]: binds

B2: chimeric 18H10 MAb (antibody, V domains shown)
VH: QVQLQQSGADLVRPGALVKLSCTASGFNIKDSYIHWVKKRPEWGLEWIGWTDPENVNSIYDPRFQGKASITADTSSNTAFLQLTSLTSEDTAVYYCARGYNGVYYAMDYWGQGTTVTVSS
VL: QIVLTQSPSIMSASLGEEITLTCSASSSVIYMHWYQQKSGTSPKLLIYRTYNLASGVPSRFSGSGSGTFYSLTISSVEAEDAADYYCHQWSSFPYTFGGGTKLEIKR
binding result [3]: binds

B4: chimeric 7E3 MAb (antibody, V domains shown)
VH: QVTLKESGPGILQPSQTLSLTCSFSGFSLTTYNIGVGWIRQPSGKGLEWLAHIWWNDNIYYNTVLKSRLTFSKDTSNNQVFLKIASVDIADTATYYCIRMAEGRYDAMDYWGQGTSVTVSS
VL: AIQMTQSTSSLSASLGDRVTINCRASQDITNYLNWYQQKPDGTVRLLIYYTSKLHSGAPSRFSGRGSGTDYSLTISNLEQEDIATYFCQQGNTFPWTFGGGTKLEIKR
binding result [3]: binds

The next lines start with the values.

binding result [4]: no binding (tested: 10 µg/ml)
binding result [5]: binds
binding result [6]: binds
B3: 7E3 monoclonal antibody (antibody, IgG1, V domains shown)
VH: QVTLKESGPGILQPSQTLSLTCSFSGFSLTTYNIGVGWIRQPSGKGLEWLAHIWWNDNIYYNTVLKSRLTFSKDTSNNQVFLKIASVDIADTATYYCIRMAEGRYDAMDYWGQGTSVTVSS
VL: AIQMTQSTSSLSASLGDRVTINCRASQDITNYLNWYQQKPDGTVRLLIYYTSKLHSGAPSRFSGRGSGTDYSLTISNLEQEDIATYFCQQGNTFPWTFGGGTKLEIKR

binding result [5]: binds
binding result [7]: binds
binding result [8]: binds
B5: 15C1 monoclonal antibody (antibody, IgG1, V domains shown)
VH: DVQLQESGPDLIQPSQSLSLTCTVTGYSITGGYSWHWIRQFPGNKLEWMGYIHYSGYTDFNPSLKTRISITRDTSKNQFFLQLNSVTTEDTATYYCARKDPSDGFPYWGQGTLVTVSA
VL: DIVMTQSPATLSVTPGDRVSLSCRASQSISDHLHWYQQKSHESPRLLIKYASHAISGIPSRFSGSGSGTDFTLSIKSVEPEDIGVYYCQNGHSFPLTFGAGTKLELKR
notes: also called 15C1 MAb; 15C1 mouse MAb

binding result [9]: binds
B6: chimeric 15C1 MAb (antibody, V domains shown)
VH: DVQLQESGPDLIQPSQSLSLTCTVTGYSITGGYSWHWIRQFPGNKLEWMGYIHYSGYTDFNPSLKTRISITRDTSKNQFFLQLNSVTTEDTATYYCARKDPSDGFPYWGQGTLVTVSA
VL: DIVMTQSPATLSVTPGDRVSLSCRASQSISDHLHWYQQKSHESPRLLIKYASHAISGIPSRFSGSGSGTDFTLSIKSVEPEDIGVYYCQNGHSFPLTFGAGTKLELKR
notes: also called chimerical 15C1
